Assay: soluble on expression in E. coli; label from the status in PepcDB or PDB records

Row | Sequence | soluble on expression in E. coli
1 | AADALVRVDGFERTSSSNTVTDIVPGVVLNLTKAAEGTKVTLGVTADTSGLKGNLTAFAAAYNTANTLLKNSSSYNAETRTASALTGDSLVRGLQQQLRGQVSGSISELKALGLTIDKDGVMSFDGGKFDTAIAADGGAAAEALGKDSKFGSGLTKLLDANVNVNNGTLTLRSDSLNKQIKGFEADLDNLDARMEKLTDRYTAQFTAMETMISKMQGATGSLSSLLAI | not soluble
2 | AAIGSCSKEYRVLLGQLQKQTDLMQDTSRLLDPYIRIQGLDVPKLREHCRERPGAFPSEETLRGLGRRGFLQTLNATLGCVLHRLADLEQRLPKAQDLERSGLNIEDLEKLQMARPNILGLRNNIYCMAQLLDNSDTAEPTKAGRGASQPPTPTPASDAFQRKLEGCRFLHGYHRFMHSVGRVFSKW | soluble
3 | AALVSISVSPTNSTVAKGLQENFKATGIFTDNSNSDITDQVTWDSSNTDILSISNASDSHGLASTLNQGNVKVTASIGGIQGSTDFKVTQAALTSIEVSPTRTSIAKGLTQKFTAIGIFTDNSKKDITDQVTWNSSSAIVSVSNLDNNKGLGKTNSVGNTTITATLGKVSGNTWFTVVPAVLTSIQINPVNPSLAKGLTQKFTATGIYSDNSNKDITSAVTWFSSDSSIATISNAQKNQGNAYGAATGATDIKATFGKVSSPVSTLSVTAAKLVEIQITPAAASKAKGLTERFKATGIFTDNSNSDITNQVTWNSSNTDIAEIKNTSGSKGITNTLTPGSSEISAALGSIKSSKVILKV | not soluble
4 | AAMTLASQIATQLLDIKAVYLKPEDPFTWASGIKSPIYTDNRVTLSYPKTRDLIENGFVETIKAHFPEVEVIAGTATAGIPHGAIIADKMTLPFAYIRSKPKDHGAGNQIEGRVLKGQKMVIIEDLISTGGSVLDAAAAASREGADVLGVVAIFTYELPKASQNFKEAGIKLITLSNYTELIAVAKLQGYITNDGLHLLKKFKEDQVNWQQ | soluble
5 | AAQAEREELAAGRMPGGGPQGAPAAAGGGGVSHRAGSRDCLPPAACFRRRRLARRPGYMRSSTGPGIGFLSPAVGTLFRFPGGVSGEESHHSESRARQCGLDSRGLLVRSPVSKSAAAPTVTSVRGTSAHFGIQLRGGTRLPDRLSWPCGPGSAGWQQEFAAMDSSETLDASWEAACSDGARRVRAAGSLPSAELSSNSCSPGCGPEVPPTPPGSHSAFTSSFSFIRLSLGSAGERGEAEGCPPSREAESHCQSPQEMGAKAASLDGPHEDPRCLSQPFSLLATRVSADLAQAARNSSRPERDMHSLPDMDPGSSSSLDPSLAGCGGDGSSGSGDAHSWDTLLRKWEPVLRDCLLRNRRQMEVISLRLKLQKLQEDAVENDDYDKAETLQQRLEDLEQEKISLHFQLPSRQPALSSFLGHLAAQVQAALRRGATQQASGDDTHTPLRMEPRLLEPTAQDSLHVSITRRDWLLQEKQQLQKEIEALQARMFVLEAKDQQLRREIEEQEQQLQWQGCDLTPLVGQLSLGQLQEVSKALQDTLASAGQIPFHAEPPETIRSLQERIKSLNLSLKEITTKVCMSEKFCSTLRKKVNDIETQLPALLEAKMHAISGNHFWTAKDLTEEIRSLTSEREGLEGLLSKLLVLSSRNVKKLGSVKEDYNRLRREVEHQETAYETSVKENTMKYMETLKNKLCSCKCPLLGKVWEADLEACRLLIQSLQLQEARGSLSVEDERQMDDLEGAAPPIPPRLHSEDKRKTPLKESYILSAELGEKCEDIGKKLLYLEDQLHTAIHSHDEDLIQSLRRELQMVKETLQAMILQLQPAKEAGEREAAASCMTAGVHEAQA | soluble
6 | AAQTTAAVEDMSMGAEDAPVTIVEYASFTCPHCANFEKEVLTPLKRDYIDTGKVRFTFREVYFDRYGLWAAMVARCGGEMRYFGIADLIFEQQKEWVTNDPAQVATNLRKIGKTAGLDDAALDACMNDQAKAEAMVAAFQKNSQADDITATPSLIINGTKHSNMSYEELKKIIDAELAK | not soluble
7 | AARSECKRSHKFVPGAWLAGEGVDVTSLRRSGSFPVDTQRFLRPDGTCTLCENALQEGTLQRLPLALTNWRAQGSGCQRHVTRAKVSSTEAVARDAARSIRNDWKVGLDVTPKPTSNVHVSVAGSHSQAANFAAQKTHQDQYSFSTDTVECRFYSFHVVHTPPLHPDFKRALGDLPHHFNASTQPAYLRLISNYGTHFIRAVELGGRISALTALRTCELALEGLTDNEVEDCLTVEAQVNIGIHGSISAEAKACEEKKKKHKMTASFHQTYRERHSEVVGGHHTSINDLLFGIQAGPEQYSAWVNSLPGSPGLVDYTLEPLHVLLDSQDPRREALRRALSQYLTDRARWRDCSRPCPPGRQKSPRDPCQCVCHGSAVTTQDCCPRQRGLAQLEVTFIQAWGLWGDWFTATDAYVKLFFGGQELRTSTVWDNNNPIWSVRLDFGDVLLATGGPLRLQVWDQDSGRDDDLLGTCDQAPKSGSHEVRCNLNHGHLKFRYHARCLPHLGGGTCLDYVPQMLLGEPPGNRSGAVW | soluble
8 | ADERLQFTATTLSGAPFDGASLQGKPAVLWFWTPWCPFCNAEAPSLSQVAAANPAVTFVGIATRADVGAMQSFVSKYNLNFTNLNDADGVIWARYNVPWQPAFVFYRADGTSTFVNNPTAAMSQDELSGRVAALTS | soluble
9 | ADGQQGAPLNSPNTYDVTTWRIKAHPEVTAQSDIGAVINDIIADIKQRQTSPDARPGAAIIIPPGDYDLHTQVVVDVSYLTIAGFGHGFFSRSILDNSNPTGWQNLQPGASHIRVLTSPSAPQAFLVKRAGDPRLSGIVFRDFCLDGVGFTPGKNSYHNGKTGIEVASDNDSFHITGMGFVYLEHALIVRGADALRVNDNMIAECGNCVELTGAGQATIVSGNHMGAGPDGVTLLAENHEGLLVTGNNLFPRGRSLIEFTGCNRCSVTSNRLQGFYPGMLRLLNGCKENLITANHIRRTNEGYPPFIGRGNGLDDLYGVVHIAGDNNLISDNLFAYNVPPANIAPAGAQPTQILIAGGDANVVALNHVVSDVASQHVVLDASTTHSKVLDSGTASQITSYSSDTAIRPTP | soluble
10 | ADINHGENVFTANCSACHAGGNNVIMPEKTLQKDALSTNQMNSVGAITYQVTNGKNAMPAFGGRLSDDDIEDVASFVLSQSEKSWN | soluble
11 | ADYVLAIDQGTTSSRAIVFDHSGEIYSTGQLEHDQIFPRAGWVEHNPEQIWNNVREVVGLALTRGNLTHEDIAAVGITNQRETAVVWDKTTGKPVYNAIVWQDTRTQKIVDELGGDEGAEKYKSIVGLPLATYFSGPKIKWILDNVEGAREKAEKGDLLFGNTDTWVLWNMTGGTEGGVHVTDVTNASRTMLMDLDTLSWREDIAADMGIPLSMLPDIRSSSEVYGHGRPRGLVPGVPIAGILGDQQAATFGQACFEVGQAKNTYGTGNFLLLNTGTEKVMSKNGLLTTVCYKIGDAPAVYALEGSIAVTGSLVQWLRDNLGMFEDAPDVEWLAGKVQDNGGAYFVPAFSGLFAPYWRPDARGALVGLTRYVNRNHIARAALEATAFQSREVVDAMNADSGVDLTELRVDGGMVANELLMQFQADQLGVDVVRPKVAETTALGAAYAAGIAVGFWKGEQDVIDNWAEDKRWSPSMESGERERLYRNWKKAVTKTMEWVDEDVEQ | soluble
12 | AEAAAAQAPAAGPGQMSFTFASPTQVFFNSANVRQVDVPTQTGAFGILAAHVPTLQVLRPGLVVVHAEDGTTSKYFVSSGSVTVNADSSVQLLAEEAVTLDMLDLGAAKANLEKAQSELLGAADEATRAEIQIRIEANEALVKALE | soluble
13 | AEGGFLEDAKTDLVLRNYYFNRDFRDHDAGKSLVDEWAQGFILKFSSGYTPGTVGVGLDAIGLFGVKLNSGRGTSNSELLPLHDDGRAADNYGRVGVAAKLRVSASELKIGEMLPDIPLLRYDDGRLLPQTFRGFAVVSRELPGLALQAGRFDAVSLRNSADMQDLSAWSAPTQKSDGFNYAGAEYRFNRERTQLGLWHGQLEDVYRQSYANLLHKQRVGDWTLGANLGLFVDRDDGAARAGEIDSHTVYGLFSAGIGLHTFYLGLQKVGGDSGWQSVYGSSGRSMGNDMFNGNFTNADERSWQVRYDYDFVGLGWPGLIGMVRYGHGSNATTKAGSGGKEWERDVELGYTVQSGPLARLNVRLNHASNRRSFNSDFDQTRLVVSYPLSW | soluble
14 | AENNNLKLASTMEGRVEQLAEQRQVIEAGGGERRVEKQHSQGKQTARERLNNLLDPHSFDEVGAFRKHRTTLFGMDKAVVPADGVVTGRGTILGRPVHAASQDFTVMGGSAGETQSTKVVETMEQALLTGTPFLFFYDSGGARIQEGIDSLSGYGKMFFANVKLSGVVPQIAIIAGPCAGGASYSPALTDFIIMTKKAHMFITGPQVIKSVTGEDVTADELGGAEAHMAISGNIHFVAEDDDAAELIAKKLLSFLPQNNTEEASFVNPNNDVSPNTELRDIVPIDGKKGYDVRDVIAKIVDWGDYLEVKAGYATNLVTAFARVNGRSVGIVANQPSVMSGCLDINASDKAAEFVNFCDSFNIPLVQLVDVPGFLPGVQQEYGGIIRHGAKMLYAYSEATVPKITVVLRKAYGGSYLAMCNRDLGADAVYAWPSAEIAVMGAEGAANVIFRKEIKAADDPDAMRAEKIEEYQNAFNTPYVAAARGQVDDVIDPADTRRKIASALEMYATKRQTRPAKKHGNFPC | soluble
15 | AEQKTLHIYNWSDYIAPDTVANFEKETGIKVVYDVFDSNEVLEGKLMAGSTGFDLVVPSASFLERQLTAGVFQPLDKSKLPEWKNLDPELLKLVAKHDPDNKFAMPYMWATTGIGYNVDKVKAVLGENAPVDSWDLILKPENLEKLKSCGVSFLDAPEEVFATVLNYLGKDPNSTKADDYTGPATDLLLKLRPNIRYFHSSQYINDLANGDICVAIGWAGDVWQASNRAKEAKNGVNVSFSIPKEGAMAFFDVFAMPADAKNKDEAYQFLNYLLRPDVVAHISDHVFYANANKAATPLVSAEVRENPGIYPPADVRAKLFTLKVQDPKIDRVRTRAWTKVKSGK | soluble
16 | AETSSATTAQQMPSLAPMLEKVMPSVVSINVEGSTTVNTPRMPRNFQQFFGDDSPFCQEGSPFQSSPFCQGGQGGNGGGQQQKFMALGSGVIIDADKGYVVTNNHVVDNATVIKVQLSDGRKFDAKMVGKDPRSDIALIQIQNPKNLTAIKMADSDALRVGDYTVAIGNPFGLGETVTSGIVSALGRSGLNAENYENFIQTDAAINRGNSGGALVNLNGELIGINTAILAPDGGNIGIGFAIPSNMVKNLTSQMVEYGQVKRGELGIMGTELNSELAKAMKVDAQRGAFVSQVLPNSSAAKAGIKAGDVITSLNGKPISSFAALRAQVGTMPVGSKLTLGLLRDGKQVNVNLELQQSSQNQVDSSSIFNGIEGAEMSNKGKDQGVVVNNVKTGTPAAQIGLKKGDVIIGANQQAVKNIAELRKVLDSKPSVLALNIQRGDSTIYLLMQ | soluble
17 | AGHMVSCCYRSLAAPDLTLRDLLDIVETSQAHNARAQLTGALFYSQGVFFQWLEGRPAAVAEVMTHIQRDRRHSNVEILAEEPIAKRRFAGWHMQLSCSEADMRSLGLAESRQIVTVGRSL | soluble
18 | AGLENTDHTNNEHRLTQLLSIAEECETLDRLKQLVDSGRIFTAYNGFEPSGRIHIAQALITVMNTNNMIECGGQMIIYIADWFAKMNLKMNGDINKIRELGRYFIEVFKACGINLDGTRFIWASEFIASNPSYIERMLDIAEFSTISRVKRCCQIMGRNESDCLKASQIFYPCMQAADVFELVPEGIDICQLGIDQRKVNMLAIEYANDRGLKIPISLSHHMLMSLSGPKKKMSKSDPQGAIFMDDTEQEVSEKISRAYCTDETFDNPIFEYIKYLLLRWFGTLNLCGKIYTDIESIQEDFSSMNKRELKTDVANYINTIIDLVREHFKKPELSELLSNVKSYQQPSK | soluble
19 | AGQCSQNEYFDSLLHACIPCQLRCSSNTPPLTCQRYCNASVTNSVKG | soluble
20 | AGQFGTDYNAAIKVDTQTEFCGYVGTKGSSSVAAMFVEGNEVDSLSAGDKAIIVLGETPFYAESGGQCGDAGEIRTEAGVFRVEDTQKLGNAIAHHGVMAEGVLAKGDEVATIVDAERRAAISLN | not soluble

From the DeepSol protein solubility set
